From patent publication US20050276757

System: p120 catenin expressed from a transfected plasmid (exogenous p120, HA-tagged in Example 1)

## ZC1 kinase, over-expressed from a plasmid (active full-length ZC1)
  in vitro phosphorylation (32P-ATP, autoradiography): p120 immunoprecipitated from cells co-expressing ZC1 also showed phosphorylation of p120 in vitro by associated ZC1
